This series is described as follows: amyloid nucleation score (Sup35N fusion, yeast selection) (log enrichment); library NNK3; higher = more nucleation; inactive = no reads after selection. An outline of the steps:
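Peptides of 20 random codons fused to Sup35N were expressed in psi-negative yeast, induced 24 hours with 100 μM copper sulfate, then grown 7 days at 30°C on medium lacking adenine and uracil. Input and output plasmid inserts were Illumina-sequenced. Nucleation score is the DiMSum log enrichment of output over input reads, centred on the mode score of non-aggregating sequences, excluding sequences with under 100 input reads. Random libraries had three technical output replicates.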

± gives the uncertainty stated by the source.

Consider LWPIGIFKKCYVDRICYYCV, for which the amyloid nucleation score result is “inactive”. In the case of TCWCGVRIFFGPQLASSVWL it was “inactive”; in that of VNNVQCLYDAVREDSRWYWG, “inactive”; in that of VFVDYCNKYGEFVSGTAQVS, “inactive”. In the case of HYAAFFYLLINMTGHAHFLK it was “inactive”. As for SFRSSSYEDNCLLVVDNVRT, the entry is “inactive”. Regarding VTPVFMIWAS, the amyloid nucleation score result was “inactive”. As for SIYKE, the entry is “inactive”; as for KYQLHYLDVFFYDVV, “inactive”. In the case of NFDKFDRRRWVMIIVYMAPA it was “inactive”. For the substance FDFASFGKWVVVRFKCKTFT, the amyloid nucleation score entry is “inactive”. SLWMQGWYSSGLLPFGSIAE: the amyloid nucleation score result is “inactive”. As for LIINIHDRLLVRVPLWDWLR, the entry is “inactive”; as for FSACS, “inactive”; as for FDLETSLL, “inactive”. As for RTFRSFSQVYRPILRRGHSG, the entry is “inactive”; as for RLYLVGYRLIRCRFGILGAC, “inactive”; as for ITNVWSVFKIRIGNCGFGAG, 1.9 ± 0.1.

As to LCTYVFYPIANSSALSLNKV, the amyloid nucleation score entry was “inactive”. In the case of YLPSSSEFR it was “inactive”; in that of TDGYFYDRSSVERSL, “inactive”; in that of VISFDVWSNRMCFLMGMIWH, “inactive”. For the substance LIDKCGKHQTFMGC, the amyloid nucleation score entry is “inactive”.

For the substance TRIGSTEKTEQSVWD, the amyloid nucleation score is -0.198 ± 0.75. As for FGVQVWLMLFLGNVYIWMVM, the entry is “inactive”; as for SDPVPVMDIALYLVNPQLPS, “inactive”. In the case of FSFNQWDLLKMSIGCFKRCK it was “inactive”; in that of PFNYVVRWESKLQSHYFGLY, “inactive”. As to TEVFVHFTCEIGYIFLILFQ, the amyloid nucleation score entry is “inactive”. As for RDWCSNLMYYDYPVTEGCDT, the amyloid nucleation score entry is “inactive”. With MKQSDLGLKGRCDNCQFGRS, the amyloid nucleation score was determined as 0.092 ± 0.96.

In the case of WDSMMYNMVKDDSGLWNHVE, the amyloid nucleation score entry was “inactive”.

For SGFVSWN, the amyloid nucleation score result was “inactive”. As to IYSDHAL, the amyloid nucleation score entry was “inactive”. TLNIRCRRFVFVWDATNSV came in with an amyloid nucleation score of 2.88 ± 0.064. With AKYFKFKHNVKGVHWKHVPE, the amyloid nucleation score is -0.074 ± 0.53. The substance KSGIV came in with an amyloid nucleation score of 0.633 ± 0.19.

Turning to NNGRYLMGRRKESDLLLGQW, the amyloid nucleation score result was “inactive”.

As for TVPIMNVPD, the amyloid nucleation score was -0.428 ± 0.8. As for IGPVTLKERETRTP, the entry is “inactive”; as for HFCPVRKGGAGIRYFYCSCW, 1.7 ± 0.12. On to PEFMTVLDVTMSYWWESCLG, for which the amyloid nucleation score entry was “inactive”. As to GDGAYS, the amyloid nucleation score result is “inactive”. In the case of SFLIGVV it was “inactive”; in that of LSAIFLCLSVCLGLHCVGLP, “inactive”; in that of SSMWF, “inactive”.

SQRYLNLVPKYLSRLVMCGI: the amyloid nucleation score entry is “inactive”.

In the case of TARVMILP, the amyloid nucleation score entry was “inactive”. In the case of EVKFYWKYKGV it was 0.561 ± 0.16. In the case of PSCFLPFNCPITLVYTCSLF it was 2.14 ± 0.07; in that of STTGWSMYYWSIRADREVTY, “inactive”; in that of EAGSVSYWFVATRPLKRACP, “inactive”. As for ILLFYLSLKRCSLQARGLDS, the figure is -0.659 ± 1.8; as for SGNDNFYVDCNWLNIIVNET, 2.79 ± 0.078.

With VFAMLLDMFDCARQWPAIPL, the amyloid nucleation score entry was “inactive”. On to RYNLSFFLYFSQANNHQNLF, for which the amyloid nucleation score result was “inactive”. Consider SFFTKADAGMPDLRSFMESC, for which the amyloid nucleation score entry is “inactive”. In the case of YICVKYEVYNFTFYFVSGFW it was “inactive”; in that of WCGEKVCCRAQMSLTIKSLL, “inactive”; in that of YLSDVLSLWCSVQIWSGLYC, “inactive”. As to WQQAYRDRTSRSYWQPICAT, the amyloid nucleation score result was “inactive”. In the case of HSEADDSLTGYFALVATRVF, the amyloid nucleation score entry is “inactive”. In the case of ITHFIMCPYYDYQRDGHWIT it was “inactive”; in that of VSGLDWFM, “inactive”; in that of KGLCL, “inactive”. As for CIHTPDRCKVCNGITFDGRC, the entry is “inactive”; as for FDVRDRSRIGLSMTITWMKI, “inactive”; as for TDFTYSLTFVYKLGEKTVDI, “inactive”. As for TGIYAF, the entry is “inactive”; as for SALKGLTRELSVRVY, “inactive”. On to SLLYYFWTNPGAFSKYIYSM, for which the amyloid nucleation score entry was “inactive”. Regarding VYVLFRLCNNRFRKELIATL, the amyloid nucleation score result was “inactive”. As for RHTPDSLQYFLVFKVSYGFL, the entry is “inactive”; as for RTSLGSCKYHLVFFYRVLVW, “inactive”. In the case of NYVVRGRSQNVRNSEDNWGK it was “inactive”; in that of KMTLYIFCLAFMLWESNQII, “inactive”; in that of QWIGISNRLLYKDWLNWRYE, “inactive”. In the case of SHLPCLFCYV it was “inactive”; in that of NLTRGYISRKRMSCPQ, “inactive”. Take LFKMSV: the amyloid nucleation score result is “inactive”.

As for RMFMWENEMDLSTSRVKGYG, the amyloid nucleation score entry is “inactive”. In the case of CYELLESS, the amyloid nucleation score entry was “inactive”.

On to YKRGFMKRYANAEASFMSYW, for which the amyloid nucleation score result is “inactive”.

As to RYMFWQWRGEL, the amyloid nucleation score was determined as 0.958 ± 0.17. As for GDGNRWDRTGSCHLQGAYCR, the entry is “inactive”; as for VRSRMSNWFNHPTVFDRLWA, 0.547 ± 0.2; as for TNGKPFYFPLAVMMSG, “inactive”. As for YVTSNSVDRTIKCSAFILIC, the entry is “inactive”.

On to DLLTFYFEPSASHSLLRPSG, for which the amyloid nucleation score entry is “inactive”. As for RRMTSYFL, the entry is “inactive”; as for FENSLFYTKVMDPCSFVWYW, “inactive”. FTQCNEAGCWHESDTNFMQC: the amyloid nucleation score was 0.109 ± 0.75. As for FMFLVFDC, the entry is “inactive”. Take DAKKVCFGIKEDCWR: the amyloid nucleation score result was “inactive”. In the case of SFSLNRRWFNIGS it was “inactive”; in that of PHTSMDALEMSD, “inactive”; in that of TVLFEIYMNEVMNGFLICST, “inactive”. In the case of HEYECGWIGVVFTMILMSLS it was “inactive”; in that of WKWVRRYVRATIRSYSKDLD, “inactive”.

For KAVQAVVLSLTGWFGVERLY, the amyloid nucleation score entry was “inactive”. Take NLGSCVRVGQWISPRRA: the amyloid nucleation score result was “inactive”. Regarding CTLGHCMKLSMSSFPAVGKV, the amyloid nucleation score entry is “inactive”. As for NYRRGVRKPSFCL, the entry is “inactive”; as for SRQGVNQKRTVCWS, “inactive”; as for ELSFPL, “inactive”. In the case of GLGMGAPQSILWVGDLLMTN it was “inactive”. In the case of SMRKRKRIKLDI it was “inactive”; in that of EVTSYVVFSFLIFTSMFHCK, -0.464 ± 0.36. On to MSMDHLMTYLRLATQVALRS, for which the amyloid nucleation score result is “inactive”.

Consider QRNMVSEGATRCLSTDFPCL, for which the amyloid nucleation score entry was “inactive”.

For the substance GGSLYACRGTLRLSNTNVKA, the amyloid nucleation score entry was “inactive”. Regarding GCNGDRFRF, the amyloid nucleation score is -0.255 ± 0.88. Take FVCSARYNSFRFKATVHNSR: the amyloid nucleation score entry was “inactive”. In the case of YRLVSLYFVLLFFGA it was “inactive”; in that of CYRWL, “inactive”.

As for ISILLIFPCEAVIFLPF, the amyloid nucleation score entry was “inactive”.

For SGSKR, the amyloid nucleation score entry is “inactive”. AANLGRSIPESSRKGIGFNF: the amyloid nucleation score entry was “inactive”. As to GFLDDYIIMDQLLHEFVKRF, the amyloid nucleation score result was “inactive”. Regarding TFSDVGLFYLTQYDKVPFDL, the amyloid nucleation score entry is “inactive”. In the case of HITLKSYARIV, the amyloid nucleation score result is “inactive”. As for EKVSYFSNNVVLIVVINRVC, the entry is “inactive”; as for FKAMLD, “inactive”; as for NQNIMWIAKYIF, 0.845 ± 0.14. With HLGFF, the amyloid nucleation score entry is “inactive”. VSNECVPWAPYGIGGF: the amyloid nucleation score entry was “inactive”. As for CYLSSTGVVYAGYVYI, the entry is “inactive”; as for MHTFSDQSISVEQRTCLQVR, “inactive”; as for TCCLIF, 1.87 ± 0.073.

Regarding EQLKTRNRKVWV, the amyloid nucleation score entry is “inactive”. Regarding PVAVLDG, the amyloid nucleation score is 0.654 ± 0.18. On to ASDGCSLRVAPVTQSPLWVS, for which the amyloid nucleation score result was “inactive”.

(Values after the supplement of paper PMC12042874.)
